Test results: patent publication US20140087995A1 (published 2014)
Numbered stars: 1 amine (or outer) side, 2 acyl side, 3 side chain; on linkers, the order of the positions; unused ones are H or OH. Bridge positions count the residues as written; N and C are the ends. Side chains are listed from the residue outwards. Ends that are not written are not given here. * marks the point of attachment. C20 diacid = O=C(O)CCCCCCCCCCCCCCCCCCC(=O)*; γGlu = O=C(O)[C@H](CCC(=O)[*:2])N[*:1]; AEEA = NCCOCCOCC(=O)O

T1: human calcitonin receptor (human, UniProt P30988 25-474)
T1 construct: whole, on cells; Assayed as cell membranes of BHK tk'ts 13 cells stably transfected with the human calcitonin receptor (Assay VII); also called hCTR; hCT
T1 sequence (looked up): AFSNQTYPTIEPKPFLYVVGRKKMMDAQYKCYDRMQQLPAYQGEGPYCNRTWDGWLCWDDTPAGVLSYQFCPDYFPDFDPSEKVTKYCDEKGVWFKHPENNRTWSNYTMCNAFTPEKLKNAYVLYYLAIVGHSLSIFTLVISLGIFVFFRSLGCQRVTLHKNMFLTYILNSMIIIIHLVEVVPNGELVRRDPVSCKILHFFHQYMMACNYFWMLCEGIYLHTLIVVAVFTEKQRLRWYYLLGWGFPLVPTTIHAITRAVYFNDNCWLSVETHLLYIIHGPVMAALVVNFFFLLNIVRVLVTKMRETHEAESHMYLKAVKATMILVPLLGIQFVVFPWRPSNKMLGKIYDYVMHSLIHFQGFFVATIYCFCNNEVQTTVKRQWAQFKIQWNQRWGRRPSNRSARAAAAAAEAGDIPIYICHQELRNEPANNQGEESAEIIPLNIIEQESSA

B1: N^ε1-[2-[2-[2-[[(4S)-4-carboxy-4-(19-carboxynonadecanoylamino)butanoyl]amino]ethoxy]ethoxy]acetyl]-[Arg14,Arg17,Pro21,Pro27,Pro31]-h-amylin (peptide)
peptide: K([AEEA-γGlu-C20 diacid])CNTATCATQRLARFLRHSSPNFGAIPSSTPVGSNTY-NH2
modifications: disulfide 2-7; N-terminus assumed
SMILES: CC[C@H](C)[C@H](NC(=O)[C@H](C)NC(=O)CNC(=O)[C@H](Cc1ccccc1)NC(=O)[C@H](CC(N)=O)NC(=O)[C@@H]1CCCN1C(=O)[C@H](CO)NC(=O)[C@H](CO)NC(=O)[C@H](Cc1c[nH]cn1)NC(=O)[C@H](CCCNC(=N)N)NC(=O)[C@H](CC(C)C)NC(=O)[C@H](Cc1ccccc1)NC(=O)[C@H](CCCNC(=N)N)NC(=O)[C@H](C)NC(=O)[C@H](CC(C)C)NC(=O)[C@H](CCCNC(=N)N)NC(=O)[C@H](CCC(N)=O)NC(=O)[C@@H](NC(=O)[C@H](C)NC(=O)[C@@H]1CSSC[C@H](NC(=O)[C@@H](N)CCCCNC(=O)COCCOCCNC(=O)CC[C@H](NC(=O)CCCCCCCCCCCCCCCCCCC(=O)O)C(=O)O)C(=O)N[C@@H](CC(N)=O)C(=O)N[C@@H]([C@@H](C)O)C(=O)N[C@@H](C)C(=O)N[C@@H]([C@@H](C)O)C(=O)N1)[C@@H](C)O)C(=O)N1CCC[C@H]1C(=O)N[C@@H](CO)C(=O)N[C@@H](CO)C(=O)N[C@H](C(=O)N1CCC[C@H]1C(=O)N[C@H](C(=O)NCC(=O)N[C@@H](CO)C(=O)N[C@@H](CC(N)=O)C(=O)N[C@H](C(=O)N[C@@H](Cc1ccc(O)cc1)C(N)=O)[C@@H](C)O)C(C)C)[C@@H](C)O
notes: also called compound 64
B2: N^ε1-[2-[2-[2-[[(4S)-4-carboxy-4-(19-carboxynonadecanoylamino)butanoyl]amino]ethoxy]ethoxy]acetyl]-[Arg17,Pro21,Pro27,His34]-h-amylin (peptide)
peptide: K([AEEA-γGlu-C20 diacid])CNTATCATQRLANFLRHSSPNFGAIPSSTNVGHNTY-NH2
modifications: disulfide 2-7; N-terminus assumed
SMILES: CC[C@H](C)[C@H](NC(=O)[C@H](C)NC(=O)CNC(=O)[C@H](Cc1ccccc1)NC(=O)[C@H](CC(N)=O)NC(=O)[C@@H]1CCCN1C(=O)[C@H](CO)NC(=O)[C@H](CO)NC(=O)[C@H](Cc1c[nH]cn1)NC(=O)[C@H](CCCNC(=N)N)NC(=O)[C@H](CC(C)C)NC(=O)[C@H](Cc1ccccc1)NC(=O)[C@H](CC(N)=O)NC(=O)[C@H](C)NC(=O)[C@H](CC(C)C)NC(=O)[C@H](CCCNC(=N)N)NC(=O)[C@H](CCC(N)=O)NC(=O)[C@@H](NC(=O)[C@H](C)NC(=O)[C@@H]1CSSC[C@H](NC(=O)[C@@H](N)CCCCNC(=O)COCCOCCNC(=O)CC[C@H](NC(=O)CCCCCCCCCCCCCCCCCCC(=O)O)C(=O)O)C(=O)N[C@@H](CC(N)=O)C(=O)N[C@@H]([C@@H](C)O)C(=O)N[C@@H](C)C(=O)N[C@@H]([C@@H](C)O)C(=O)N1)[C@@H](C)O)C(=O)N1CCC[C@H]1C(=O)N[C@@H](CO)C(=O)N[C@@H](CO)C(=O)N[C@H](C(=O)N[C@@H](CC(N)=O)C(=O)N[C@H](C(=O)NCC(=O)N[C@@H](Cc1c[nH]cn1)C(=O)N[C@@H](CC(N)=O)C(=O)N[C@H](C(=O)N[C@@H](Cc1ccc(O)cc1)C(N)=O)[C@@H](C)O)C(C)C)[C@@H](C)O
notes: also called compound 76
B3: N^ε1-[2-[2-[2-[[(4S)-4-carboxy-4-(19-carboxynonadecanoylamino)butanoyl]amino]ethoxy]ethoxy]acetyl]-[Arg14,Arg17,Pro21,Pro27]-h-amylin (peptide)
peptide: K([AEEA-γGlu-C20 diacid])CNTATCATQRLARFLRHSSPNFGAIPSSTNVGSNTY-NH2
modifications: disulfide 2-7; N-terminus assumed
SMILES: CC[C@H](C)[C@H](NC(=O)[C@H](C)NC(=O)CNC(=O)[C@H](Cc1ccccc1)NC(=O)[C@H](CC(N)=O)NC(=O)[C@@H]1CCCN1C(=O)[C@H](CO)NC(=O)[C@H](CO)NC(=O)[C@H](Cc1c[nH]cn1)NC(=O)[C@H](CCCNC(=N)N)NC(=O)[C@H](CC(C)C)NC(=O)[C@H](Cc1ccccc1)NC(=O)[C@H](CCCNC(=N)N)NC(=O)[C@H](C)NC(=O)[C@H](CC(C)C)NC(=O)[C@H](CCCNC(=N)N)NC(=O)[C@H](CCC(N)=O)NC(=O)[C@@H](NC(=O)[C@H](C)NC(=O)[C@@H]1CSSC[C@H](NC(=O)[C@@H](N)CCCCNC(=O)COCCOCCNC(=O)CC[C@H](NC(=O)CCCCCCCCCCCCCCCCCCC(=O)O)C(=O)O)C(=O)N[C@@H](CC(N)=O)C(=O)N[C@@H]([C@@H](C)O)C(=O)N[C@@H](C)C(=O)N[C@@H]([C@@H](C)O)C(=O)N1)[C@@H](C)O)C(=O)N1CCC[C@H]1C(=O)N[C@@H](CO)C(=O)N[C@@H](CO)C(=O)N[C@H](C(=O)N[C@@H](CC(N)=O)C(=O)N[C@H](C(=O)NCC(=O)N[C@@H](CO)C(=O)N[C@@H](CC(N)=O)C(=O)N[C@H](C(=O)N[C@@H](Cc1ccc(O)cc1)C(N)=O)[C@@H](C)O)C(C)C)[C@@H](C)O
notes: also called compound 82
B4: N^ε1-[2-[2-[2-[[(4S)-4-carboxy-4-(19-carboxynonadecanoylamino)butanoyl]amino]ethoxy]ethoxy]acetyl]-[Arg17,Pro21,Pro27,Arg34]-h-amylin (peptide)
peptide: K([AEEA-γGlu-C20 diacid])CNTATCATQRLANFLRHSSPNFGAIPSSTNVGRNTY-NH2
modifications: disulfide 2-7; N-terminus assumed
SMILES: CC[C@H](C)[C@H](NC(=O)[C@H](C)NC(=O)CNC(=O)[C@H](Cc1ccccc1)NC(=O)[C@H](CC(N)=O)NC(=O)[C@@H]1CCCN1C(=O)[C@H](CO)NC(=O)[C@H](CO)NC(=O)[C@H](Cc1c[nH]cn1)NC(=O)[C@H](CCCNC(=N)N)NC(=O)[C@H](CC(C)C)NC(=O)[C@H](Cc1ccccc1)NC(=O)[C@H](CC(N)=O)NC(=O)[C@H](C)NC(=O)[C@H](CC(C)C)NC(=O)[C@H](CCCNC(=N)N)NC(=O)[C@H](CCC(N)=O)NC(=O)[C@@H](NC(=O)[C@H](C)NC(=O)[C@@H]1CSSC[C@H](NC(=O)[C@@H](N)CCCCNC(=O)COCCOCCNC(=O)CC[C@H](NC(=O)CCCCCCCCCCCCCCCCCCC(=O)O)C(=O)O)C(=O)N[C@@H](CC(N)=O)C(=O)N[C@@H]([C@@H](C)O)C(=O)N[C@@H](C)C(=O)N[C@@H]([C@@H](C)O)C(=O)N1)[C@@H](C)O)C(=O)N1CCC[C@H]1C(=O)N[C@@H](CO)C(=O)N[C@@H](CO)C(=O)N[C@H](C(=O)N[C@@H](CC(N)=O)C(=O)N[C@H](C(=O)NCC(=O)N[C@@H](CCCNC(=N)N)C(=O)N[C@@H](CC(N)=O)C(=O)N[C@H](C(=O)N[C@@H](Cc1ccc(O)cc1)C(N)=O)[C@@H](C)O)C(C)C)[C@@H](C)O
notes: also called compound 78

These binders were tested against T1, human calcitonin receptor (assay: IC50 at hCTR divided by IC50 at hAmylin-R (SPA competition assays V and VII)).
Method: The resulting pellet was resuspended, homogenized and centrifuged (20.000 rpm, 15 min) in a buffer containing 20 mM Na-HEPES and 0.1 mM EDTA (pH 7.4, buffer 2). The resulting pellet was resuspended in buffer 2 and protein concentration was measured (BCA protein Assay, Pierce). The homogenate was kept cold during the whole procedure. The membranes were kept at −80° C. until use. The assay was performed in a 384 well Optiplate (PerkinElmer) in a total volume of 40 ul. Membranes were mixed with SPA beads. Final concentration of membranes 35 ng/μL final and SPA beads was 0.05 mg/well. Test-compounds were dissolved in DMSO and further diluted in assay buffer (50 mM Hepes, pH 7.4, 1 mM CaCl2, 5 mM MgCl₂, 0.1% OA and 0.02% Tween20). […] The final mixture was incubated with shaking at 400 rpm for 120 min at 25° C. prior to centrifugation (1500 rpm, 10 min). Samples were analyzed on TopCounter™ (Packard). The IC₅₀ was calculated using (one site binding competition analysis) GraphPad Prism5 as a measure of receptor affinity.
Membranes were prepared in the following way; the cells were rinsed with PBS and incubated with Versene for approximately 5 min before harvesting. The cells were flushed with PBS and the cell-suspension was centrifuged for 5 min at 1000 rpm. Cells were homogenized (Ultrathurrax) in a buffer containing 20 mM Na-HEPES and 10 mM EDTA (pH 7.4) and centrifuged at 20.000 rpm for 15 min. The resulting pellet was resuspended, homogenized and centrifuged (20.000 rpm, 15 min) in a buffer containing 20 mM Na-HEPES and 0.1 mM EDTA (pH 7.4, buffer 2). The resulting pellet was resuspended in buffer 2 and protein concentration was measured (BCA protein Assay, Pierce). The homogenate was kept cold during the whole procedure. The membranes were kept at −80° C. until use. Assay was performed in a 384 well Optiplate (PerkinElmer) in a total volume of 40 ul. Membranes were mixed with SPA beads.

| Ratio hCT/hAmylin binding | Binder |
| --- | --- |
| 126 | B1 |
| 104 | K([AEEA-γGlu-C20 diacid])CNTATCATQRLANFLRHSSPNFGAIPPSTPVGSNTY-NH2 (disulfide 2-7, also called compound 53) |
| 80 | B2 |
| 140 | B3 |
| 60.7 | B4 |

The binders below were run against T1, human calcitonin receptor (assay: SPA competition vs 125I-calcitonin, membranes of BHK cells with human calcitonin receptor (Assay VII)).
Method: Membranes were prepared in the following way; the cells were rinsed with PBS and incubated with Versene for approximately 5 min before harvesting. The cells were flushed with PBS and the cell-suspension was centrifuged for 5 min at 1000 rpm. Cells were homogenized (Ultrathurrax) in a buffer containing 20 mM Na-HEPES and 10 mM EDTA (pH 7.4) and centrifuged at 20.000 rpm for 15 min. The resulting pellet was resuspended, homogenized and centrifuged (20.000 rpm, 15 min) in a buffer containing 20 mM Na-HEPES and 0.1 mM EDTA (pH 7.4, buffer 2). The resulting pellet was resuspended in buffer 2 and protein concentration was measured (BCA protein Assay, Pierce). The homogenate was kept cold during the whole procedure. The membranes were kept at −80° C. until use. Assay was performed in a 384 well Optiplate (PerkinElmer) in a total volume of 40 ul. Membranes were mixed with SPA beads. Final concentration of membranes 35 ng/μL final and Final concentration of SPA beads was 0.05 mg/well. Test-compounds were dissolved in DMSO and further diluted in assay buffer (50 mM Hepes, pH 7.4, 1 mM CaCl2, 5 mM MgCl₂, 0.1% OA and 0.02% Tween20). […] The final mixture was incubated for 120 min with shaking at 400 rpm at 25° C. prior to centrifugation (1500 rpm, 10 min). Samples were analyzed on TopCounter™ (Packard). The […] was calculated using (one site binding competition analysis) GraphPad Prism5 as a measure of receptor affinity.

| IC50 [nM] | Binder |
| --- | --- |
| 56 | B1 |
| 5.38 | K([AEEA-γGlu-C20 diacid])CNTATCATQRLANFLRHSSPNFGAIPPSTPVGSNTY-NH2 (disulfide 2-7, also called compound 53) |
| 17.2 | B2 |
| 88.8 | B3 |
| 36.5 | B4 |
